The source of these data is patent US20250377350A1.

In this test the target is NY-ESO-1 157-165 peptide … presented on HLA-A*0201 (human). In words: cell-based or functional assay.

The substance “TCR1G4 (specific for the NY-ESO-1 157-165 … antigen), displayed on TnT cells” had a mRuby2 (STAT5-mRuby2 reporter) expression in peptide-pulsed ACDC-HLA cells after co-culture with TnT-TCR1G4 cells of 29% and a mRuby2+ cells of the monoclonal ACDC-HLA (A*0201) line (Clone 3, …-pulsed) after co-culture with TnT-TCR1G4 cells of 46.7%.
